T1: human galectin-10 as coated in ELISA (soluble galectin-10; tag not given) (human, UniProt Q05315 1-142, limits assumed)
T1 construct: also called coated galectin-10; Gal10
T1 sequence: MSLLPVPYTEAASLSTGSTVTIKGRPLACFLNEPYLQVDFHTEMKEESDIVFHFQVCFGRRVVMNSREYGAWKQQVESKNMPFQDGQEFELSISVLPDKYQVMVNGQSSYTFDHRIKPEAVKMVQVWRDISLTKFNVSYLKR

T2: human galectin-10-His (recombinant human galectin-10 with TEV-cleavable N-terminal His-tag) (human)
T2 construct: SEC-MALLS: dimer in solution; also called Gal10-His; humanGal10-His
T2 chain: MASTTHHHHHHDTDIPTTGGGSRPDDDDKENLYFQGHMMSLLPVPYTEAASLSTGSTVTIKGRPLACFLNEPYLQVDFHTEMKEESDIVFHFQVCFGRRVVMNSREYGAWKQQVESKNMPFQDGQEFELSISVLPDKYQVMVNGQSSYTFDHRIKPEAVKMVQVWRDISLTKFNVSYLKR

T3: recombinant human galectin-10, TEV-cleaved (human, UniProt Q05315 1-142)
T3 sequence: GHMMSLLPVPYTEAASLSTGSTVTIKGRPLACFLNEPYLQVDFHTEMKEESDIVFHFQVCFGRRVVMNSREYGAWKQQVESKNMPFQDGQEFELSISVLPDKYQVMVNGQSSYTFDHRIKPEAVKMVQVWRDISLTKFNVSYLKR

T4: cynomolgus galectin-10-His, WGS isoform (cynomolgus)
T4 construct: also called cynoGal10-WGS; not shown: His tag
T4 chain: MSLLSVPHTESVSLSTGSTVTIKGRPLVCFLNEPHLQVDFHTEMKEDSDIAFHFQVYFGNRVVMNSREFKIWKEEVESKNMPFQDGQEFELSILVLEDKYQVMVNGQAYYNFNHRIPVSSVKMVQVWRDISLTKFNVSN

T5: human galectin-10-His (human)
T5 construct: The last M of the tag may be Met1 of galectin-10; also called humanGal10-His; hGal10
T5 chain: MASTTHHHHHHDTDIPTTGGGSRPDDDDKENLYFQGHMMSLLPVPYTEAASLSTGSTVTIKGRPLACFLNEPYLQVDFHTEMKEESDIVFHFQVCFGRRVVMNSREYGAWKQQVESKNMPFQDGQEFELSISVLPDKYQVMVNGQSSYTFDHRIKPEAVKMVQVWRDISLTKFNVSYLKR

T6: cynomolgus galectin-10-His, YRT isoform (cynomolgus)
T6 construct: also called cynoGal10-YRT; not shown: His tag
T6 chain: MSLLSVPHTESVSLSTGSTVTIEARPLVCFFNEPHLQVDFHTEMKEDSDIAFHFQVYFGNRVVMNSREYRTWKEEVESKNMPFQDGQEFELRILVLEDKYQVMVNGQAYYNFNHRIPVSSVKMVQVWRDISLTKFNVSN


Assays:
[1] = target: T1, human galectin-10 as coated in ELISA …; test: ELISA, scFv periplasmic extract on coated soluble galectin-10, anti-Myc-HRP
Experimental: In order to test the binding capacity of the scFvs to galectin-10, an ELISA binding assay was established. Briefly, a Maxisorp plate was coated with soluble galectin-10 (1 μg/mL), then blocked with casein, before being incubated with the periplasmic extract (dilution 1/5 in PBS) containing the scFv-Myc. Detection of the binder was carried out with an anti-Myc-HRP antibody. Absorbance was measured at 450 nm (reference at 620 nm) with Tecan instrument. A significant number of galectin-10 scFv binders were isolated after the second round of selection (45-87% of binders).

[2] = target: T2, human galectin-10-His (recombinant …); test: BLI Octet RED96, galectin-10-His on anti-Penta-His tips, scFv periplasmic extract 1/10
Experimental: Briefly, galectin-10-His tagged diluted in Kinetic Buffer was captured on Anti-Penta His 1K sensor tips until an immobilization level of 1 nm was reached. Then, diluted periplasmic extracts (1/10) were applied and association/dissociation to immobilized galectin-10-His was measured using the ForteBio Data analysis 9.0 software (subtraction of the reference Tips, 1.1 binding model). During the screening, only the dissociation (off-rate) of the scFv can be determined since the effective concentration of the scFv is unknown and can vary a lot from clone to clone. […] Therefore, taking into consideration the ELISA and BLI data, a new panel of lead scFvs was selected.

[3] = target: T3, recombinant human galectin-10, …; test: cell-based or functional assay
[4] = target: T3, recombinant human galectin-10, …; test: cell-based or functional assay; remark: listed apart in the source
[5] = target: T4, cynomolgus galectin-10-His, WGS isoform; test: SPR Biacore T3000, mouse IgG1 captured
Experimental: (§1) The binding capacity of the mouse IgG1 antibody panel to galectin-10 was analysed on Biacore T3000. For this purpose, a capture approach was used, where a fixed concentration (1.5 μg/mL) of the mouse IgG1 clone was captured by polyclonal anti-mouse Fc antibodies immobilized on CM5 Chip to reach a binding signal around 150 RU. Then a serial dilution of human and cynomolgus WGS isoform of galectin-10-His (serial dilution, 1 over 2 from 5 μg/mL) diluted in HBS-EP pH7.4 was injected. Raw data were analysed via BIA evaluation software with a blank subtraction. The kd/KD and Rmax of each mAbs to galectin-10-His was determined using the Fit Kinetics simultaneous ka/kd/Binding with mass transfer/Local Rmax on BIA evaluation software.

human galectin-10-His [6] = target: T5, human galectin-10-His; test: SPR Biacore T3000, mouse IgG1 captured
Experimental: as §1

[7] = target: T4, cynomolgus galectin-10-His, WGS isoform; test: ELISA, coated antigen 0.5 ug/mL
Experimental: (§2) In a similar setup to that used during the characterization of the scFv-human Fc molecules, the relative binding properties of the 7 mouse IgG1 antibodies were analyzed by ELISA. A Maxisorp plate was coated overnight with 0.5 μg/mL of human or cynomolgus WGS or YRT isoform of galectin-10-His. Then a serial dilution of each clone (from 100 nM, dilution 1/4, 12 points of dilutions) was incubated on coated galectin-10. After several washing steps, detection of the bound mouse IgG1 was carried out with an anti-mouse Fc-HRP antibody (DAMPO, Jackson ImmunoResearch, Catalog 715-035-150). Absorbance was measured at 450 nm (reference at 620 nm) with Tecan instrument. The raw data (OD values) were plotted on GraphPad Prism 7.01. The EC50 values for each antibody, calculated with a non-linear regression (log(agonist) vs. response Variable slope (four parameters)), are shown in the table below. Antibody 1D11 from the previous panel was included for comparison.

human galectin-10-His [8] = target: T5, human galectin-10-His; test: ELISA, coated antigen 0.5 ug/mL
Experimental: as §2

[9] = target: T6, cynomolgus galectin-10-His, YRT isoform; test: ELISA, coated antigen 0.5 ug/mL
Experimental: as §2

ELISA binding (OD values) [1]	koff [2]	50% dissolution (min) of CLCs, antibody 50 uM [3]	90% dissolution (min) of CLCs, antibody 50 uM [3]	Kd [5]	koff [5]	kon [5]	Kd (human galectin-10-His [6])	koff (human galectin-10-His [6])	kon (human galectin-10-His [6])	EC50 [7]	OD values [7]	EC50 (human galectin-10-His [8])	OD values (human galectin-10-His [8])	OD values [9]	Binder	further results
3.6 OD	0.0067 s⁻¹	–	–	–	–	–	–	–	–	–	–	–	–	–	scFv 2C07 (periplasmic extract, Myc-tagged) (scFv, not shown: small tags and cut ends) scFv: ELQLVESGGGLVQPGGSLRLSCAASGFTFSSYAMSWVRQAPGKGLEWVSNINSGGGSTGYADSVKGRFTISRDNAKNTLYLQMNSLKPEDMAVYYCAKYLRTYYPNAAFGMDYWGKGTLVTVSSGGGGSGGGGSGGGGSQAVLTQPSAVSVSLGQTARITCQGGNFGRYYASWYQQKPGQAPVLVIYRDSERPSGIPERFSGSSSGDTATLTISGAQAEDEADYYCQSGRSSDNAVFGGGTHLTGL	PERI-ELISA binding (OD values) [1]: 3.63 OD
3.6 OD	0.0094 s⁻¹	–	–	–	–	–	–	–	–	–	–	–	–	–	scFv 4E08 (periplasmic extract, Myc-tagged) (scFv, not shown: small tags and cut ends, also called 4E8) scFv: QVQRQESGPGLVKPSQTLSLTCTVSGGSITTSYYAWSWIRQPPGKGLEWMGVIASDGSTYYSPSLKSRTSISRDTSKNQFSLQLSSVTPEDTAVYYCALYIRGSSWSGWSAYDYWGQGTQVTVSSGGGGSGGGGSGGGGSQPVLNQPSAVSVSLGQTARITCQGGNFGYYYGSWYQQKPGQAPVLVIYKDSERPSGIPERFSGSSSGGTATLTISRAQAEDEADYYCQSADSSDNPVFGGGTHLTVL	–
3.5 OD	0.0082 s⁻¹	–	–	–	–	–	–	–	–	–	–	–	–	–	scFv 6A08 (periplasmic extract, Myc-tagged) (scFv, not shown: small tags and cut ends) scFv: QVQLVESGGGLVQPGGSLRLSCAASGFTFSSYAMSWVRQAPGKGPEWVSAINRGGGSTYYADSVKGRFTISRDNAKNTLYLQMNSLKPEDAAVYYCATPGDRLWYYRYDYWGQGAQVTVSSGGGGSGGGGSGGGGSQTVVTQEPSLSVSPGGTVTLTCGLSSGSVTSSNYPGWYQQTPGQAPRLLIYNTNSRYSGVPNRFSGSISGNKAALIISGAQPEDEADYHCALNRVRGTYRVFGGGTHLTVL	–
3.3 OD	0.0052 s⁻¹	–	–	–	–	–	–	–	–	–	–	–	–	–	scFv 1D11 (periplasmic extract, Myc-tagged) (scFv, not shown: small tags and cut ends, also called 1D011) scFv: QVQLVESGGGLVQPGGSLRLSCAASGFTFDDYAMSWVRQAPGKGLEWVSGISWNGGSTYYAESMKGRFTISRDNAKNTLYLQMNSLKSEDTAVYYCAKDRNLGYRLGYPYDYWGQGTQVTVSSGGGGSGGGGSGGGGSQSVLTQPPSVSGSPGETVTISCAGTSSDVGYGNYVSWYQQLPGMAPRLLIYEVNKRASGITDRFSGSKSGNTASLTISGLQSEDEGDYYCASYRSSNNAVFGGGTHLTVL	–
3.6 OD	0.0099 s⁻¹	–	–	–	–	–	–	–	–	–	–	–	–	–	scFv 2F09 (periplasmic extract, Myc-tagged) (scFv, not shown: small tags and cut ends) scFv: QVQVQESGPGLVKPSQTLSLTCTVSGGSITTNYFYWSWIRQSPGKGLEWIGAIAYSGRTYYSPSLKSRTSISRDTSNNQFTLQLSSVTPEDTAVYYCARGPKGLASYYDYWGQGTQVTVSSGGGGSGGGGSGGGGSSSALTQPSAVSVSLGQTARITCQGGNFGYYYVSWYQQKPGQAPVLVIYRDSGRPSGIPERFSGSSSGDTATLTISGAQAEDEADYYCQSGSSSDNTVFGGGTHLTVL	–

Further lines, the binder ahead of its results:

Binder	ELISA binding (OD values) [1]	koff [2]	50% dissolution (min) of CLCs, antibody 50 uM [3]	90% dissolution (min) of CLCs, antibody 50 uM [3]	Kd [5]	koff [5]	kon [5]	Kd (human galectin-10-His [6])	koff (human galectin-10-His [6])	kon (human galectin-10-His [6])	EC50 [7]	OD values [7]	EC50 (human galectin-10-His [8])	OD values (human galectin-10-His [8])	OD values [9]	further results
scFv 1C09 (periplasmic extract, Myc-tagged) (scFv, not shown: small tags and cut ends, also called 1C9) scFv: QVQLVESGPGLVKPSQTLSLTCTVSGGSITTNSYYWSWIRQPPGKGLEWMGAIAYSGSTYYSPSLKSRTSISRDTSKNQFTLHLSSVTPEDTAVYYCARRPNWYRALDAWGQGTLVTVSSGGGGSGGGGSGGGGSNFMLTQPSAVSVSLGQTARITCQGANLGRYYGIWYQQKPGQAPVQVIYGDSNRPSGIPERFSGSSSGGTATLTISGAQAEDEADYYCQSYESSTSPVFGGGTHLTVL	3.5 OD	0.0014 s⁻¹	–	–	–	–	–	–	–	–	–	–	–	–	–	–
10B02 mouse IgG1 (antibody, V domains shown, VH and VL cloned in frame with mouse IgG1 constant domains; also called 10B02 mIgG1) VH: QVQLVESGGGLVQPGGSLRVSCAASGFTFSYHYMNWVRQAPGKGLEWVSGISAGGGRTYYADSVKGRFTISRDNAKNTLYLQMNSLNAEDTALYYCARVHGITNDYWGQGTQVTVSS VL: QSALTQPPSVSGSPGKTVTISCAGTSSDVGYGNYVSWYQQLPGMAPKLLIYEVNKRASGITDRFSGSKSGNTAFLTISGLQSEDEADYYCASYRNSNNWVFGGGTHLTVL	–	–	25.1 min	47.4 min	0.9 nM	0.00042 s⁻¹	494000 M⁻¹ s⁻¹	1.5 nM	0.00205 s⁻¹	1.42e+06 M⁻¹ s⁻¹	0.04 nM	3.7 OD	2.28 nM	1.4 OD	3.36 OD	50% crystal dissolution (min), 50 uM [4]: 73.7 min; 90% crystal dissolution (min), 50 uM [4]: > 120 min; EC50 [9]: 0.14 nM
8H11 mouse IgG1 (antibody, V domains shown, VH and VL cloned in frame with mouse IgG1 constant domains; also called 8H11 mIgG1) VH: ELQLVESGGGLVQPGGSLRLSCAASGFTFSTNYMNWVRQAPGKGLEWVSGITSGGGRTYYADSVKGRFTISRDNAKNTLYLQMNSLKPEDTALYYCARTDHAWLDAWGQGTLVTVSS VL: QAGLTQPPSVSGTLGKTVTISCAGTSSDVGYGNYVSWYQQLPGTAPKLLIYAVSTRASGIPDRFSGSKSGNTASLTISGLLSEDEADYYCASYRSSNNYVFGGGTKLTVL	–	–	22.4 min	43.5 min	4.4 nM	0.000754 s⁻¹	170000 M⁻¹ s⁻¹	0.9 nM	0.00197 s⁻¹	2.31e+06 M⁻¹ s⁻¹	0.03 nM	3.61 OD	1.46 nM	1.5 OD	2.97 OD	50% crystal dissolution (min), 50 uM [4]: 68.3 min; 90% crystal dissolution (min), 50 uM [4]: > 120 min; EC50 [9]: 0.3 nM
11F02 mouse IgG1 (antibody, V domains shown, VH and VL cloned in frame with mouse IgG1 constant domains; also called 11F02 mIgG1) VH: ELQVVESGGGLVQPGGSLRLSCAASGFTFSTNYMNWVRQAPGKGLEWVSGITSHGARTYYADSVKGRFTISRDNSKNTLYLQMNSLKPEDTALYYCARTDHASLDAWGQGTLVTVSS VL: QTVVTQEPSLSVSPGGTVTLTCGLSSGSVTSSNYPGWYQQKPGQAPRTLIYNTNSRYSGVPNRFSGSISGNKAALTITGAQPEDEADYYCALYMGSSSYNTVFGGGTHLTVL	–	–	25.5 min	57.5 min	5 nM	0.00198 s⁻¹	394000 M⁻¹ s⁻¹	2.2 nM	0.00489 s⁻¹	2.27e+06 M⁻¹ s⁻¹	0.6 nM	3.29 OD	3.08 nM	0.9 OD	1.7 OD	–

From US20190367619A1 (ARGENX, published 2019)
